Results as given in the DeepSol protein solubility set.

Experiment: soluble on expression in E. coli; label from the status in PepcDB or PDB records

Soluble on expression in E. coli, not soluble:
MGSDKIHHHHHHMSREILRVENLVKHFPIRAGVFKRIVGWVKAVDGVSFSINEGETFGLVGESGCGKTTIGMTLLRLYEPTSGRIIVDNEDTTYYFMPRSKAKKYIKQTYLSRFVNMKESDVEKLEGVDREYARIFFEEAKGSPKKFMSILLDDLPEKRKKFRREMQIVFQDPYSSLNPRLRVKSIVGEGIVTHRIARGKEVEKRIKEILEDVGIPSAYVYRFPHEFSGGQRQRIGIARALALEPKLVVADEAVAALDVSIRSQIINLMEDLQREHKLTYIFISHDLAVVKHISDRIGVMYLGKMVELAPKKDLFEKPLHPYTVALMSAIPVPDPTKKRERIILKGDVPSPINPPSGCRFHTRCPIAKEICSKEEPAFREVEEGHFVACHFPGELR
MGSDKIHHHHHHMSRHQNIPALSDVSSTNFSNIRLIATDMDGTLTRRGKFTTPLLQALEDLAAVDIKVLIVTGRSAGWVSGLSSLMPVAGAIAENGGLYFPPGNHKPVVLTPVSDLAKHRQHLATTFENLQTKFPQIQESADNRFRVTDWTFDVADLNQDELQTLDSLCQQMGWGFTYSNVQCHIKPQGQDKAVGLLQVLREYLPQYSPEQIVTVGDSPNDESLFERRYFPVSVGVANVLEYMNQLKYHPAYITNAAEGEGFCELSSYILKSLHIPS
MGSDKIHHHHHHMSRISEEIENLTVELVKVPSVNGTEGEGNIGNKILSYLKEIDYFKEHEEYAFRIPLKNDKLGRGNVFALIRGEKGQSNRTIILHGHMDTVAVDDYGSLKDYAFDPDILQKKLKEIELPEEVREDLDSGDWMFGRGASDMKSGDAVHLVVLKELSKRVKDISGNILFMSNPVEENEHNGIREALDTLEKLKEKYSLEYTLAINNDYICPMYKGDNTRYLYTGTVGKLLPAFYFVGKETHVGQCFEGINADVIASEVINEIDLNVDLCDEYNGEYTLPPSVLKFKDLKESYNVQTPFSSFAYFNYTVHSESPKQASEKLKKAAKRAFERVIKRNDDRYKKYCEMTNQKYEPLNFQAKVITYTQLYTLAKARFSGDLDKEIKSYEQRLVDNYVDIREISLRVVDKVFNIWGEKKPCIVMFFAPPYCPHNTLNVKNEKEKEIINKIKECAQQLKEKEGINEEFKVMQFFPSLSDSSYLKIDDDSEGIESLTSNFPGWDRVYGVPVQKIKDLNIPAINYGCYGKDAHKWTERVYKPYSFEVLPKLIMLTIEKFL
MGSDKIHHHHHHMSRLLRSPQTGAGKLFSAASSENFSKQNLIDAVIKEARRKVMEAEFQKKFMQSWSRYFPGAELPIGFYYTDSAETKFMAKPPKRHRCIIGDLAKVRKGKPQCFDNNAIGCFGGKRYLGFESKLTPDFEYFLSCGIPGKIEGERYKKSPELVKEHLKHQQPLKAPGNYIIFKRWDQMENADIPSVVIFFAAPDVLSGLFTLANFDETHPHGVIAPFGAGCASIVDYPYKELNSPDPRSVLGMFDVSARPCVPSNVLTFAVPWPKFVRMVGNMDESFLITRSWNKVKTRIKKEHAKSNDK
MGSDKIHHHHHHMSRPRIHPLQALFGAHEHRPDLPVCDHYAGVEPRMRKALALQADMADTALFDVTLDLEDGAPVGGEPEHARLAAELVSSAANRHGRVGVRVHPYPHPSFADDVRSLLAGAGERLAYLMIPKAQGVEELRDAIAAIEATRREQGLARAVPVHALVETHGALRDVQAIAALPAIESLSFGLMDFVSAHHGAIPAFGMSLAGQFSHPLVLRAKLEISAACHAAGKLPSHCVVTEYSDTQAIAQAATRASRELGYARMWSIHPNQIRPIVEAFAPVPAEIEAALDILLAAQAADWAPIAHRGLLQDRASYRYHWHVLERAARTGRSLPDTARSAFFATAAA
MGSDKIHHHHHHMSSNRCDDCHPAGIDDANRQPRLETAAKGGGEPAPSTANLPDAAHLPGGRIRIGISSCLLGNPVRFDGGHKFDPWVVNVLGAYLDFVPVCPEVECGMGIPREALRLVGDPSAPRLVTVKHGEDWTDRMRAWAERRVAELEGEGLCGYIFKRASPSSGMERVKVYPEFDPATGKSGGVPVQKGVGMFARAFIERFPLLPVEEEGRLNDPDLRENFIERLFVMRRWRQLLDDGLDTGGLVAFHTRHKLLMLAHSPQHYRTMGKLVAQAATYPRDELREAYQRLLMEGLRLRATPAKHVNVLQHIMGYFRKQLTPDEKQEMLEQIDLYRRALVPLVVPVTLLNHYVRKYGEKYLAGQFYLNPHPVELKLRNHV
MGSDKIHHHHHHMSTDNLALNIREKAMEAGFDHCGIVKIDALADYVSRLEERAAAFPRSKPFYDFLSKLGTPQAAHEWGKSVIVCAMRYGKYRIPNRADRHIGKLYLYGGYRQPAYSQEYAGMAGFEAFLAAEGIRFAKDVFGIAPARLCAAQANLGVIRNNNFLYTEHGSWVWLETWLIDRELEYRESPNTLPSCPPGCSKCIDACPTGALKAPFLTDMGTCIARLTYSPSGEAPEPLRESMGTWLYGCDECQNACPMNKGRWEEKEEYPRLEELSRHISLEKIAEMDEHAVSDILSPMFWIIGKEKLWMWKCNVIRAMVNGKDPGHHSTIRKLCDDGNENVRRTAEWACRQLGI
MGSDKIHHHHHHMSTKHAIAAAHFLENKENEAWHDHTLWMVRTKRDKMSHSLPEWERLRELASEIKLYSNSHLDTLLEEFEKNAIANGAIVHWAKDAEEHNEIVLRILRQHDARNLIKSKSMLTEECHMNEFLMSKGIDVVESDLGERILQLMHLAPSHIVMPAIHIKREQISEMMEREMGTEKGNIDPTYLTHAARKNLREKFLHADVAMTGANFAVASTGEIVVCTNEGNADMGTSFPKVHIATMGMEKIVPNLEALGVFTRLLARSGTGQPITSYTSHYRRPPEGQEFHIIIVDNGRSDILAKPDHIRTLNCIRCGECMNTCPVYRRSGGYSYTYFIPGPIGINLGMLRNPEEYSDNVSACSLCLSCSNVCPVKIDLGEQIYRWRQDLDKIGKASKEKKVMSFGMKFLMERSGLFNTALKFAPVVNHLPRFMVYNGLNAWGKGRELPAFAKESFNDMWKNNKVR
MGSDKIHHHHHHMSTPCILCVAITGSLPTKDNNPAVPITISEQIESTHEAFEAGATICHAHVRNDDQTPSSDPEKFERLKEGLEKHCPGMIIQFSTGGRSGAGKARGGMLPLAPDMASLSVGSNNFPTRVYENPPDLVDWLAGEMRTHQVTPEVEAFDLSHILNAIALHKSGALYGKLYVQFVMGVKNAMPADKEVFDFYVDLVKRRAPDANWCAAGIGANQLVVNEWAIAAGGHTRAGLEDNVRLDRNTLAPSNAALIRRAAELCEKYERPVATWQQAREILDVPLRA
MGSDKIHHHHHHMSTVDPVEQLLANGLKNLWYPICPVGFIEDKPVSLRRLGYKLAVWRDTDGTLHALEDHCPHRGAPLSRGVNLGDRLQCPYHGVEVRCDGVTARVPGSPGCKLEGSQATRFFHITEAAGAVWLYNSAGNVEEAPPLVLPEQLTDPEFSHFLCYTEWRGDYRYVLDNVMDPMHGTYLHKQSHSMSEGESQARFVTRDTDTGFIFEKDGQRGVNFDWTEWADTGMHWMRLEIPYPKTGGPGGNFHIVGSYTPIARDLCAVFHWRCRPLTGWQRDTWRFLYRNRLEARHWAVLEQDREMLEFMEPDANQRENLYQHDLGLVRLRRHLKNLAKAQLELIEARQL
MGSDKIHHHHHHMSTVIDSNIFNTLVSNTFYSCPLGGAIYDTEGNLIDLNKAMFAHFSLADKHDFIIEHLFNNIVLTDSLKSSLRKGDAIICEEPVTFKVEPIYTDEQGLSGYTLWLTQQGEKETDRENKLLMGQLNESRILMRQALEDGKLAAYSFSFDRFSTCDKRHCNRCFQFYGTTNTLLDKNRFICRALSSVRKPEDSLDFFYLFNKIRDEKLSSHNVTFHLRNQDGTYKMYEISGKSMDIDESGTPHVIIGSIIEKENDELAIADHQKSKDLSLLKSTFLANMTHEIRTPLNAIVGFSDMLGLEDDPEMREQYISMIKENNTALLELINDTLEMSRIESNTINWSYEDVNPLAIMHDVYEYASPRISKNVRLILDDSPNVSLHTDKHKLMLILKKLLSNALRYTEKGEIHFGYQSLYPVSVQFYVSDTGNGIPKDKLGHIFERFVQLNEFQPGTGLGLSICKGLVTAMGGTIWVNSEEGKGSTFSFKLPITPPDTIS
MGSDKIHHHHHHMSVGRIGFIGTGSITEAIVTGLATCADVPTEVWLSPRNAQIADRLAQAYPMVQVAGENQEVVDRCDVVCLAVRPQVAESVLQALRFSGRHHVISFIATYGLDKLRTLIAPAKTLVRAAPLPTVAEHLCNTLVFPADDIARSLFTQLGGAIEVGSEEAFDVLFSATATMGSYFALLHNQARWLEQHGSTYSEARDYLASLHFGLASVARKTQTRFDELSKEFTTAGGLNEQVLDALGAHRVFNAFDDAFDQVLHRIGGTVSQRNE
MGSDKIHHHHHHMSVPQRPHQFVLTLSCPSAAGQVAAVVGLLDRHRCYVDELTVFDDDLSARFFVRCVFHATDDADALRVDALRREFEPIAERFRMQWAIHDVAARPKVLIMVSKLEHCLADLLFRWKMGELKMDIVGIVSNHPDFAPLAAQHGLPFRHFPITADTKAQQEAQWLDVFETSGAELVILARYMQVLSPEASARLANRAINIHHSFLPGFKGAKPYHQAHARGVKLIGATAHFVTDDLDEGPIIEQVVERVDHSYRPEQLLAVGRDVECITLARAVKAFIERRVFLNGDRTVVFQ
MGSDKIHHHHHHMTAAAATTAGATGGASRRPADEAIAADARALSEQLKAMRDRLFAPTAMKTLRSFTSGEAAKLIGVSDGYLRQLSLAGEGPQPDTGAGGRRSYSLSDINALRRHLAEQAIAKGNGAKARGYLKWRDAARSEHLQVISVTNFKGGSGKTTSSVHLAQYLALTGHRVLAVDLDPQASLSALFGYQPELDLTGNDTLYGAIRYDAEARPLKDIIRKTYFDGLDLVPGNLELQEFEHTTPQALSARQSGADAGPLFFARVQAALASVADDYDVVVIDCPPQLGYLTLSALCASTSVIVTVHPQMLDVASMNQFLYMTSDLLSVVRDAGGELNFDFLRYLVTRFEPNDGPQAQIVGFMRSLFGDRVLTSAMVKSTAISDAGLTKQTLYEVGRENFTRATYDRAIESLNAVNGEIEALIHAAWGR
MGSDKIHHHHHHMTARQDLVDLIAAIDAGSGPARNPYWRDLAVDDSVARKAAVLMLFGALDNVPAASGKPLAPADLDVLLLERAHTLDDHPGQVAFPGGGIDPGETPIEAALREAEEETGLDSAGVEVLGAMPQLALPRGNFLVTPVLAWWHSPSPVRVVDYGESAQVFRVPVRDLLDPDNRVMATVSRAGQSFLSPAFVVNKVVVWGFTGMILNELFDHLGWSVPWDRSRLHQIDV
MGSDKIHHHHHHMTAVNIWKPEDNIPREILAILSKPHPNYQLAFLNIIQLLKTQRRTGWVDHGIDPCESISDHMYRMGLTTMLITDKNVDRNKCIRIALVHDFAESLVGDITPNDPMTKEEKHRREFETVKYLCESIIRPCSESASREILDDWLAYEKQTCLEGRYVKDIDKYEMLVQCFEYEQKYNGKKDLKQFLGAINDIKTDEVKKWTQSLLEDRQAFFDSLKE
MGSDKIHHHHHHMTDSRQRLLVFAPTRRVASETFVRANLAGLPFEVSAYFGDEFPLDQPGRFAYGLGVLLSKIFTRLGWLRLAELPAAFVAWILIRRHRPDVVLAEFGFHAVRVMQAAARVDVPFVVHFRGSDLSANRRLGVLRSRYRRLVSIASGVVCKSRPMATTLEQLGASPSTILISPSGANPALFSVGDPALAAPVFLAVGRFVAKKGPLQTIRAFAGQPQGELWMVGEGPLLAEARRLVQALQVQDRVRFLGVKTQSEVAALMRQARVFVQHSQIAPDGDSEGNPVSVMEAQLCGLPVVATLHAGIPDVVLDGSTGLLVEENDVDGMAEAMTRLMADPNLAAQFGLAGRERVLAAFTLEHHLQDLTRFLQQQIRSTTHF
